We go through one substance from patent US20240075098A1.

The target in the assay is DTR.

For the substance Diphtheria toxin (from UniProt P00588), the death of cochlea outer hair cells in Prestin-P2A-DTR/+ mice after DT at P36 was greater than 90%.
